In paper PMC12142670 one finds T1/2 (dissociation temperature of the full antibody into half antibodies) and Kd data, which are given here for three substances.

Where two headings read alike, the source gives them in different places.

Test [1] concerns the target hinge-deleted human IgG4 anti-epidermal growth factor receptor (EGFR) antibody (IgG4Δhinge), R409K variant (human). Put plainly: native MS; variable-temperature ESI native MS (vT-ESI-MS); 2.5 uM antibody in 150 mM ammonium acetate pH 7.5; continuous ramp from 30 to 100 °C at 2 °C/min; full noncovalent antibody to two half antibodies.
In test [2] the target is hinge-deleted human IgG4 anti-epidermal growth factor receptor (EGFR) antibody (IgG4Δhinge), L368A variant (human). The description is as above.
Test [3] has the same target. Described as above. This is another data set of the same source.
Test [4] addresses IgG4 heavy chain CH3 (Homo sapiens) [IgG part: P01861]. The settings on record: cited from earlier work.

Sequence of IgG4 heavy chain CH3 (P01861 218-328): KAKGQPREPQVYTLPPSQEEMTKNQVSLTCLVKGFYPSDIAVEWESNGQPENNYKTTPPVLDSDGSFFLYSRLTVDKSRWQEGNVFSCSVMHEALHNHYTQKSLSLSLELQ

With “hinge-deleted human IgG4 anti-epidermal growth factor receptor (EGFR) antibody (IgG4Δhinge), R409K variant”, in test [1], the T1/2 (dissociation temperature of the full antibody into half antibodies) was determined as 77 °C.

Consider “hinge-deleted human IgG4 anti-epidermal growth factor receptor (EGFR) antibody (IgG4Δhinge), L368A variant”, for which the T1/2 (dissociation temperature of the full antibody into half antibodies) in test [2] amounted to 53 °C; in test [3] it was 52 °C.

Turning to “IgG4 heavy chain CH3 (from UniProt P01861)”, the dissociation constant Kd in test [4] is 49.7 nM.
